# Starred links: 1 amine or outer side, 2 acyl side, 3 side chain; linkers in the order of their positions; H or OH if unused. Positions of bridges follow the written chain, without caps; N, C: chain ends. Non-standard residues stand in square brackets, D forms with d. Primed or numbered codes have the meaning given here. MeKCOpipzaa″ = (2S)-6-{[4-(carboxymethyl)piperazine-1-carbonyl]amino}-2-(methylamino)hexanoic acid, CN([C@@H](CCCCNC(=O)N1CCN(CC(=O)[*:3])CC1)C(=O)[*:2])[*:1]; MeDapCOpipzaa = 3-(4-(carboxymethyl)piperazine-1-carboxamido)-2-(methylamino)propanoic acid, CN([C@@H](CNC(=O)N1CCN(CC(=O)[*:3])CC1)C(=O)[*:2])[*:1]; MeKCOpipzaa = N-alpha-methyl-N6-[4-(carboxymethyl)piperazine-1-carbonyl]-L-lysine, CN([C@@H](CCCCNC(=O)N1CCN(CC(=O)[*:3])CC1)C(=O)[*:2])[*:1]; MeA4paa = 3-(1-(carboxymethyl)piperidin-4-yl)-2-(methylamino)propanoic acid, CN([C@@H](CC1CCN(CC(=O)[*:3])CC1)C(=O)[*:2])[*:1]; W5N = 2-amino-3-(1H-pyrrolo[3,2-c]pyridin-3-yl)propanoic acid (5-aza-tryptophan), O=C([C@H](Cc1c[nH]c2ccncc12)N[*:1])[*:2]; 3Py6NHaa = 2-amino-3-(6-((carboxymethyl)amino)pyridin-3-yl)propanoic acid, O=C([C@H](Cc1ccc(NCC(=O)[*:3])nc1)N[*:1])[*:2]; MeHseMe(3) = N-methyl-O-methyl-homoserine, 4-methoxy-2-(methylamino)butanoic acid, COCC[C@@H](C(=O)[*:2])N(C)[*:1]; F4aao″ = 2-amino-3-(4-(carboxymethoxy)phenyl)propanoic acid, O=C([C@H](Cc1ccc(OCC(=O)[*:3])cc1)N[*:1])[*:2]; TMe(3) = O-methyl-L-threonine ((2S,3R)-2-amino-3-methoxybutanoic acid), CO[C@H](C)[C@H](N[*:1])C(=O)[*:2]; F4aao = 4-(carboxymethoxy)-L-phenylalanine, O=C([C@H](Cc1ccc(OCC(=O)[*:3])cc1)N[*:1])[*:2]; MeHseMe = N-methyl-O-methyl-L-homoserine, COCC[C@@H](C(=O)[*:2])N(C)[*:1]; Thr(Me)″ = TMe = O-methyl-L-threonine, CO[C@H](C)[C@H](N[*:1])C(=O)[*:2]; Phe(4-(1-Me-pyrazol-4-yl)) = Cn1cc(-c2ccc(C[C@H](N)C(=O)O)cc2)cn1; TMe = O-methyl-L-threonine, CO[C@H](C)[C@H](N[*:1])C(=O)[*:2]; NMeAla(isoquinolin-7-yl) = CN[C@@H](Cc1ccc2ccncc2c1)C(=O)O; Phe(4-CH2COOH) = N[C@@H](Cc1ccc(CC(=O)O)cc1)C(=O)O; 3Pal(6-Ph) = N[C@@H](Cc1ccc(-c2ccccc2)nc1)C(=O)O; Phe(4-COOH) = N[C@@H](Cc1ccc(C(=O)O)cc1)C(=O)O; S3REt = (3R)-2-amino-3-hydroxypentanoic acid; NMe2Nal = CN[C@@H](Cc1ccc2ccccc2c1)C(=O)O; AEF = NCCOc1ccc(C[C@H](N)C(=O)O)cc1; NMe3Pal = CN[C@@H](Cc1cccnc1)C(=O)O; NMeY = CN[C@@H](Cc1ccc(O)cc1)C(=O)O; NMeI = CC[C@H](C)[C@H](NC)C(=O)O; aIle = CC[C@@H](C)[C@H](N)C(=O)O; NMeQ = CN[C@@H](CCC(N)=O)C(=O)O; NMeK = CN[C@@H](CCCCN)C(=O)O; NMeC = CN[C@@H](CS)C(=O)O; NMeA = CN[C@@H](C)C(=O)O; MeK = methyl-L-lysine
# B1: Macrocyclic peptide of Example 2-43 (SEQ ID No. 32) (peptide)
# peptide: {CH2CO}-[NMeK][NMeI]D[NMeQ][Phe(4-COOH)][TMe]I[F4aao″][NMeAla(isoquinolin-7-yl)]G[3Pal(6-Ph)][NMeC]E-NH2
# modifications: thioether N-12
# SMILES: CC[C@H](C)[C@@H]1NC(=O)[C@H]([C@@H](C)OC)NC(=O)[C@H](Cc2ccc(C(=O)O)cc2)NC(=O)[C@H](CCC(N)=O)N(C)C(=O)[C@H](CC(=O)O)NC(=O)[C@H]([C@@H](C)CC)N(C)C(=O)[C@H](CCCCN)N(C)C(=O)CSC[C@@H](C(=O)N[C@@H](CCC(=O)O)C(N)=O)N(C)C(=O)[C@H](Cc2ccc(-c3ccccc3)nc2)NC(=O)CNC(=O)[C@H](Cc2ccc3ccncc3c2)N(C)C(=O)[C@H](Cc2ccc(OCC(=O)O)cc2)NC1=O
# B2: Macrocyclic peptide of Example 2-40 (SEQ ID No. 66) (peptide)
# peptide: {CH2CO}-[NMeA][NMeY]DY[TMe]IY[NMe2Nal]G[3Pal(6-Ph)][NMeC]-NH2
# modifications: thioether N-11
# SMILES: CC[C@H](C)[C@@H]1NC(=O)[C@H]([C@@H](C)OC)NC(=O)[C@H](Cc2ccc(O)cc2)NC(=O)[C@H](CC(=O)O)NC(=O)[C@H](Cc2ccc(O)cc2)N(C)C(=O)[C@H](C)N(C)C(=O)CSC[C@@H](C(N)=O)N(C)C(=O)[C@H](Cc2ccc(-c3ccccc3)nc2)NC(=O)CNC(=O)[C@H](Cc2ccc3ccccc3c2)N(C)C(=O)[C@H](Cc2ccc(O)cc2)NC1=O
# notes: 11 residues
# B3: Macrocyclic peptide of Example 2-42 (SEQ ID No. 31) (peptide)
# peptide: {CH2CO}-[NMeK][NMeI]D[NMeQ][Phe(4-COOH)][TMe]I[F4aao″][NMeAla(isoquinolin-7-yl)]G[3Pal(6-Ph)][NMeC][dE]-NH2
# modifications: thioether N-12
# SMILES: CC[C@H](C)[C@@H]1NC(=O)[C@H]([C@@H](C)OC)NC(=O)[C@H](Cc2ccc(C(=O)O)cc2)NC(=O)[C@H](CCC(N)=O)N(C)C(=O)[C@H](CC(=O)O)NC(=O)[C@H]([C@@H](C)CC)N(C)C(=O)[C@H](CCCCN)N(C)C(=O)CSC[C@@H](C(=O)N[C@H](CCC(=O)O)C(N)=O)N(C)C(=O)[C@H](Cc2ccc(-c3ccccc3)nc2)NC(=O)CNC(=O)[C@H](Cc2ccc3ccncc3c2)N(C)C(=O)[C@H](Cc2ccc(OCC(=O)O)cc2)NC1=O
# B4: Macrocyclic peptide of Example 2-39 (SEQ ID No. 67) (peptide)
# peptide: ASDYIIYFGXC
# modifications: not fully specified; MeA-S-(position 3 absent)-D-Y-I-I-Y-MeNal2-G-3Py6Ph-MeC-NH2; thioether ring from N-terminal acetyl to MeC
# notes: 11 residues
# B5: Macrocyclic peptide of Example 2-41 (SEQ ID No. 68) (peptide)
# peptide: {CH2CO}-[NMeA]S[W5N]YIIY[NMe2Nal]G[3Pal(6-Ph)][NMeC]-NH2
# modifications: thioether N-11
# SMILES: CC[C@H](C)[C@@H]1NC(=O)[C@H](Cc2ccc(O)cc2)NC(=O)[C@H](Cc2c[nH]c3ccncc23)NC(=O)[C@H](CO)NC(=O)[C@H](C)N(C)C(=O)CSC[C@@H](C(N)=O)N(C)C(=O)[C@H](Cc2ccc(-c3ccccc3)nc2)NC(=O)CNC(=O)[C@H](Cc2ccc3ccccc3c2)N(C)C(=O)[C@H](Cc2ccc(O)cc2)NC(=O)[C@H]([C@@H](C)CC)NC1=O
# notes: 11 residues
# B6: Macrocyclic peptide of Example 2-44 (SEQ ID No. 69) (peptide)
# peptide: {CH2CO}-[NMeA][NMe3Pal]DY[aIle]IY[NMe2Nal]G[3Pal(6-Ph)][NMeC]-NH2
# modifications: thioether N-11
# SMILES: CC[C@@H](C)[C@@H]1NC(=O)[C@H](Cc2ccc(O)cc2)NC(=O)[C@H](CC(=O)O)NC(=O)[C@H](Cc2cccnc2)N(C)C(=O)[C@H](C)N(C)C(=O)CSC[C@@H](C(N)=O)N(C)C(=O)[C@H](Cc2ccc(-c3ccccc3)nc2)NC(=O)CNC(=O)[C@H](Cc2ccc3ccccc3c2)N(C)C(=O)[C@H](Cc2ccc(O)cc2)NC(=O)[C@H]([C@@H](C)CC)NC1=O
# notes: 11 residues
# Molecular target: T1, Human Glypican3-Fc (ACRO Biosystems, GP3-H5258) (human, UniProt P51654 25-559)
# T1 construct: Bought fusion protein, captured in Methods B-2, B-3 and B-4; Catalogue number is printed only in Method B-2; not shown: Fc part of the bought fusion
# Assay: SPR (Biacore T200), Method B-3: Glypican3-Fc captured on Protein A chip, peptide as analyte
# Method: A Protein A sensor chip (Cytiva) was inserted into a Biacore T200 (Cytiva), priming was performed three times with a running buffer: HBS-P+, pH 7.4 (Cytiva), and equilibration was carried out at a flow rate of 30 μL/min. Glypican3-Fc was allowed to react for 60 seconds at a flow rate of 10 μL/min. After capturing human Glypican3-Fe, a peptide solution prepared to 10 mM in DMSO solution was diluted with a running buffer to a final concentration of 10 μM. […] Using the above samples, peptide kinetics for Glypican3 was obtained by SPR measurement. Kinetics evaluation of Glypican3 was performed by SPR measurements at a flow rate of 10 LL/min, setting the association time to 120 seconds and the disassociation time to 600 seconds.
# The obtained data by Method B-1, Method B-2, Method B-3 and Method B-4 were analyzed by follow. Single Cycle Kinetics was used as the kinetics evaluation model, and curve fitting was performed using Biacore T200 Evaluation Software Version 3.0 (Cytiva).
row,Kd,Binder
1,9.3 nM,B1
2,0.2 nM,{CH2CO}-[MeK][NMeI]Q[NMeQ][Phe(4-COOH)]II[Phe(4-COOH)][NMe2Nal]G[Phe(4-(1-Me-pyrazol-4-yl))][NMeC]-NH2 (thioether N-12) [Macrocyclic peptide of Example 2-46 (SEQ ID No. 6)]
3,0.5 nM,{CH2CO}-[MeK][MeHseMe(3)]D[NMeQ][Phe(4-COOH)]II[Phe(4-CH2COOH)][NMe2Nal]G[Phe(4-(1-Me-pyrazol-4-yl))][NMeC]-NH2 (thioether N-12) [Macrocyclic peptide of Example 2-48 (SEQ ID No. 22)]
4,21.5 nM,B2
5,3.2 nM,B3
6,6.6 nM,{CH2CO}-[MeKCOpipzaa″][MeHseMe]D[NMeQ][Phe(4-COOH)][S3REt]IY[NMeAla(isoquinolin-7-yl)]G[3Pal(6-Ph)][NMeC]-NH2 (thioether N-12) [Macrocyclic peptide of Example 2-25 (SEQ ID No. 59)]
7,25.3 nM,B4
8,58.5 nM,B5
9,49.1 nM,B6
10,2.5 nM,{CH2CO}-[MeK][NMeQ]D[MeA4paa][Phe(4-COOH)][TMe(3)]I[Phe(4-CH2COOH)][NMe2Nal]G[Phe(4-(1-Me-pyrazol-4-yl))][NMeC]-NH2 (thioether N-12) [Macrocyclic peptide of Example 2-51 (SEQ ID No. 25)]
11,6.6 nM,{CH2CO}-[NMeK][MeKCOpipzaa]D[MeDapCOpipzaa][3Py6NHaa][Thr(Me)″]I[F4aao][NMeAla(isoquinolin-7-yl)]G[3Pal(6-Ph)][NMeC]-NH2 (thioether N-12) [Macrocyclic peptide of Example 2-30 (SEQ ID No. 47)]
12,0.3 nM,{CH2CO}-[NMeA][MeHseMe]D[NMeQ][Phe(4-COOH)][Thr(Me)″]I[AEF][NMe2Nal]G[3Pal(6-Ph)][NMeC]-NH2 (thioether N-12) [Macrocyclic peptide of Example 2-28 (SEQ ID No. 44)]

# Source: patent publication US20260241049A1, “Radiopharmaceutical Compositions Targeting Glypican-3 and Uses Thereof” (RayzeBio, Inc., priority 2023, published 2026)
